From patent US20120331590A1 come the findings set out here.

For experiment [1], the target named is BBMV's from FAW (brush border membrane vesicle proteins of Spodoptera frugiperda larval midgut). Nature of the experiment: homologous competition: unlabeled Cry1Be displacing 0.5 nM 125I Cry1Be from FAW BBMV's.
For experiment [2] the target is unchanged. Nature of the experiment: heterologous competition: unlabeled Cry1Be against 0.5 nM 125I Cry1Da on FAW BBMV's (the sites that Cry1Da binds, not Cry1Be's own sites).
The target is the same in experiment [3]. Nature of the experiment: homologous competition: unlabeled Cry1Da displacing 0.5 nM 125I Cry1Da from FAW BBMV's.
For experiment [4] the target is unchanged. Kind of experiment: heterologous competition: 1,000 nM unlabeled Cry1Da against 0.5 nM 125I Cry1Be on FAW BBMV's (the sites that Cry1Be binds).

Regarding “Cry1Be (unlabeled, truncated Cry toxin) (from UniProt O85805 35-641) (ligand)”, the IC50 in experiment [1] is 2 nM; in experiment [2], more than 1000 nM.

As for “Cry1Da (unlabeled, truncated Cry toxin) (from UniProt P19415 28-594) (ligand)”, in experiment [3], the half-maximal inhibitory concentration (IC50) was 1.5 nM. In experiment [4], this substance had a percent displacement of 125I Cry1Be of less than 50%.

For orientation: IC50 means the concentration that inhibits the measured activity by half.
